Where two headings read alike, the source gives them in different places.
Key:
[1] = target: recombinant GST-Arc (UniProt Q63053); experiment: Scatchard analysis
[2] = target: recombinant GST-Arc (UniProt Q63053); experiment: Scatchard analysis; remark: listed apart in the source

UniProt Q63053, sequence (Q63053 whole entry): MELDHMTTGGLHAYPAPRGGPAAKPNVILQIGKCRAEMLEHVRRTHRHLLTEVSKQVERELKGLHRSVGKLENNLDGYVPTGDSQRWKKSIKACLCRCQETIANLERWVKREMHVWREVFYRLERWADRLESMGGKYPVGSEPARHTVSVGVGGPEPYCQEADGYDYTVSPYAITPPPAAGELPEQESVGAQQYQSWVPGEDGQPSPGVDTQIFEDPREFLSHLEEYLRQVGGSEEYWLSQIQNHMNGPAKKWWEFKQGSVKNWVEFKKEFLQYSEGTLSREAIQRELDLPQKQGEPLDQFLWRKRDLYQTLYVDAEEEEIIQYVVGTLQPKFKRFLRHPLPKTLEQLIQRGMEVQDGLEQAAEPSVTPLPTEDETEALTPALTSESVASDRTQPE

Substance: recombinant CaMKIIα (from UniProt P11275 1-478) (enzyme)
- Kd [1]: 10 µM
- Kd [2]: 60 µM
